B1: EYFP tagged myosin Va peptide containing a single IQ domain (IQ6) (domain or fragment)
chain: TMKAIVYLQCCFRRMMAKRELKKLKIEARSVERYKK
notes: mouse myosin Va neck domain, single IQ domain IQ6, residues T885-K920 (Uniprot Q99104); A three amino-acid linker 'AAA' joins EYFP with the peptide; also called EYFP-tagged IQ6 peptide; source: HEK293, transiently transfected, in live cells
B2: EYFP-tagged full length myosin Va neck domain peptide containing six IQ domains (IQ1-6) (domain or fragment)
chain: LRAACIRIQKTIRGWLLRKRYLCMQRAAITVQRYVRGYQARCYAKFLRRTKAATTIQKYWRMYVVRRRYKIRRAATIVIQSYLRGYLTRNRYRKILREYKAVIIQKRVRGWLARTHYKRTMKAIVYLQCCFRRMMAKRELKKLKIEARSVERYKK
notes: mouse myosin Va full length neck domain, six tandem IQ domains IQ1-6, residues L766-K920 (Uniprot Q99104); A three amino-acid linker 'AAA' joins EYFP with the peptide; source: HEK293, transiently transfected, in live cells
B3: EYFP tagged myosin Va three tandem IQ domain peptide (IQ4-6) (domain or fragment)
chain: RRAATIVIQSYLRGYLTRNRYRKILREYKAVIIQKRVRGWLARTHYKRTMKAIVYLQCCFRRMMAKRELKKLKIEARSVERYKK
notes: mouse myosin Va neck domain, three tandem IQ domains IQ4-6, residues R837-K920 (Uniprot Q99104); A three amino-acid linker 'AAA' joins EYFP with the peptide; source: HEK293, transiently transfected, in live cells
B4: EYFP tagged myosin Va two tandem IQ domain peptide (IQ5-6) (domain or fragment)
chain: REYKAVIIQKRVRGWLARTHYKRTMKAIVYLQCCFRRMMAKRELKKLKIEARSVERYKK
notes: mouse myosin Va neck domain, two tandem IQ domains IQ5-6, residues R862-K920 (Uniprot Q99104); A three amino-acid linker 'AAA' joins EYFP with the peptide; source: HEK293, transiently transfected, in live cells
B5: EYFP tagged myosin Va five tandem IQ domain truncation (IQ2-6) (domain or fragment)
chain: MQRAAITVQRYVRGYQARCYAKFLRRTKAATTIQKYWRMYVVRRRYKIRRAATIVIQSYLRGYLTRNRYRKILREYKAVIIQKRVRGWLARTHYKRTMKAIVYLQCCFRRMMAKRELKKLKIEARSVERYKK
notes: mouse myosin Va neck domain, five tandem IQ domains IQ2-6, residues M789-K920 (Uniprot Q99104); A three amino-acid linker 'AAA' joins EYFP with the peptide; source: HEK293, transiently transfected, in live cells
B6: EYFP tagged myosin Va four tandem IQ domain peptide (IQ3-6) (domain or fragment)
chain: RTKAATTIQKYWRMYVVRRRYKIRRAATIVIQSYLRGYLTRNRYRKILREYKAVIIQKRVRGWLARTHYKRTMKAIVYLQCCFRRMMAKRELKKLKIEARSVERYKK
notes: mouse myosin Va neck domain, four tandem IQ domains IQ3-6, residues R814-K920 (Uniprot Q99104); A three amino-acid linker 'AAA' joins EYFP with the peptide; source: HEK293, transiently transfected, in live cells

Molecular target: T1, ECFP-tagged calmodulin (CaM) (UniProt P0DP23 1-149)
T1 construct: calmodulin (CaM); also called ECFP-CaM; ECFP fused CaM; source: HEK293, transiently transfected, in live cells
Experiment: FRET or BRET; FRET 2-hybrid (3^3-FRET and E-FRET) in single live HEK293 cells, room temperature, basal (resting) Ca2+: Tyrode's bath with 2 mM Ca2+; relative (effective) dissociation constants Kd,EFF; stoichiometry ratio ν = EA,max/ED,max
Conditions: partners not purified

Kd, ~25 nM:
B1
B2
B3
B4
B5
B6

Reference: article PMC5150656, “Detecting stoichiometry of macromolecular complexes in live cells using FRET” (Nature Communications, 2016)
